Starred links: 1 amine or outer side, 2 acyl side, 3 side chain; linkers in the order of their positions; H or OH if unused. Non-standard residues stand in square brackets, D forms with d. Groups on a side chain read outwards from the residue. No end group written: not given here. *: point of attachment. C20 diacid = O=C(O)CCCCCCCCCCCCCCCCCCC(=O)*; γGlu = O=C(O)[C@H](CCC(=O)[*:2])N[*:1]; αMeF = C[C@](N)(Cc1ccccc1)C(=O)O; 4Pal = N[C@@H](Cc1ccncc1)C(=O)O; αMeL = CC(C)C[C@](C)(N)C(=O)O; AEEA = NCCOCCOCC(=O)O; Aib = CC(C)(N)C(=O)O
T1: human glucose-dependent insulinotropic peptide receptor (human, UniProt P48546 22-466)
T1 sequence (looked up): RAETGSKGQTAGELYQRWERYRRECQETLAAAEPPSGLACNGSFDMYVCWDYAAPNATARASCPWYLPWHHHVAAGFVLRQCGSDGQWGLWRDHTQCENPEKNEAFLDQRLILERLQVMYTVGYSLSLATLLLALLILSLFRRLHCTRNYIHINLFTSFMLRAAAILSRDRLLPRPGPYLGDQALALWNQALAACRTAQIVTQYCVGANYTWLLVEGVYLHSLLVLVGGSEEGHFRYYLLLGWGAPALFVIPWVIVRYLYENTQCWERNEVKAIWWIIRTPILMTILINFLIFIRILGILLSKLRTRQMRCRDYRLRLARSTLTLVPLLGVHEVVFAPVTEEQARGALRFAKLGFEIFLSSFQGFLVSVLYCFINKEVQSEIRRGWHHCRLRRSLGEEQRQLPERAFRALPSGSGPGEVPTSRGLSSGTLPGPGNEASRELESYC

B1: Example 55 (peptide)
peptide: YXEGTXISDYSIXLDKKHQXDFVEXLLAGGPSSGAPPPS
modifications: Aib2; Iva6; αMeL13; K17((2-[2-(2-Amino-ethoxy)-ethoxy]-acetyl)2-(γ-Glu)-CO-(CH2)18-CO2H); Aib20; 4-Pal25; C-terminal amide
B2: Example 54 (peptide)
peptide: Y[Aib]EGTFISDYSI[αMeL]LDKK([AEEA-AEEA-γGlu-C20 diacid])HQ[Aib]DFVEWLLAGGPSSGAPPPS-NH2
modifications: N-terminus assumed
SMILES: CC[C@H](C)[C@H](NC(=O)[C@H](Cc1ccccc1)NC(=O)[C@@H](NC(=O)CNC(=O)[C@H](CCC(=O)O)NC(=O)C(C)(C)NC(=O)[C@@H](N)Cc1ccc(O)cc1)[C@@H](C)O)C(=O)N[C@@H](CO)C(=O)N[C@@H](CC(=O)O)C(=O)N[C@@H](Cc1ccc(O)cc1)C(=O)N[C@@H](CO)C(=O)N[C@H](C(=O)N[C@@](C)(CC(C)C)C(=O)N[C@@H](CC(C)C)C(=O)N[C@@H](CC(=O)O)C(=O)N[C@@H](CCCCN)C(=O)N[C@@H](CCCCNC(=O)COCCOCCNC(=O)COCCOCCNC(=O)CC[C@H](NC(=O)CCCCCCCCCCCCCCCCCCC(=O)O)C(=O)O)C(=O)N[C@@H](Cc1c[nH]cn1)C(=O)N[C@@H](CCC(N)=O)C(=O)NC(C)(C)C(=O)N[C@@H](CC(=O)O)C(=O)N[C@@H](Cc1ccccc1)C(=O)N[C@H](C(=O)N[C@@H](CCC(=O)O)C(=O)N[C@@H](Cc1c[nH]c2ccccc12)C(=O)N[C@@H](CC(C)C)C(=O)N[C@@H](CC(C)C)C(=O)N[C@@H](C)C(=O)NCC(=O)NCC(=O)N1CCC[C@H]1C(=O)N[C@@H](CO)C(=O)N[C@@H](CO)C(=O)NCC(=O)N[C@@H](C)C(=O)N1CCC[C@H]1C(=O)N1CCC[C@H]1C(=O)N1CCC[C@H]1C(=O)N[C@@H](CO)C(N)=O)C(C)C)[C@@H](C)CC
B3: Example 53 (peptide)
peptide: Y[Aib]EGTFISDYSI[αMeL]LDKK([AEEA-AEEA-γGlu-C20 diacid])HQ[Aib]DFVEYLLAGGPSSGAPPPS-NH2
modifications: N-terminus assumed
SMILES: CC[C@H](C)[C@H](NC(=O)[C@H](Cc1ccccc1)NC(=O)[C@@H](NC(=O)CNC(=O)[C@H](CCC(=O)O)NC(=O)C(C)(C)NC(=O)[C@@H](N)Cc1ccc(O)cc1)[C@@H](C)O)C(=O)N[C@@H](CO)C(=O)N[C@@H](CC(=O)O)C(=O)N[C@@H](Cc1ccc(O)cc1)C(=O)N[C@@H](CO)C(=O)N[C@H](C(=O)N[C@@](C)(CC(C)C)C(=O)N[C@@H](CC(C)C)C(=O)N[C@@H](CC(=O)O)C(=O)N[C@@H](CCCCN)C(=O)N[C@@H](CCCCNC(=O)COCCOCCNC(=O)COCCOCCNC(=O)CC[C@H](NC(=O)CCCCCCCCCCCCCCCCCCC(=O)O)C(=O)O)C(=O)N[C@@H](Cc1c[nH]cn1)C(=O)N[C@@H](CCC(N)=O)C(=O)NC(C)(C)C(=O)N[C@@H](CC(=O)O)C(=O)N[C@@H](Cc1ccccc1)C(=O)N[C@H](C(=O)N[C@@H](CCC(=O)O)C(=O)N[C@@H](Cc1ccc(O)cc1)C(=O)N[C@@H](CC(C)C)C(=O)N[C@@H](CC(C)C)C(=O)N[C@@H](C)C(=O)NCC(=O)NCC(=O)N1CCC[C@H]1C(=O)N[C@@H](CO)C(=O)N[C@@H](CO)C(=O)NCC(=O)N[C@@H](C)C(=O)N1CCC[C@H]1C(=O)N1CCC[C@H]1C(=O)N1CCC[C@H]1C(=O)N[C@@H](CO)C(N)=O)C(C)C)[C@@H](C)CC
B4: Example 57 (peptide)
peptide: Y[Aib]EGTFISDYSI[αMeL]LDKK([AEEA-AEEA-γGlu-C20 diacid])HQ[Aib]EFVE[4Pal]LLAQGPSSGAPPPS-NH2
modifications: N-terminus assumed
SMILES: CC[C@H](C)[C@H](NC(=O)[C@H](Cc1ccccc1)NC(=O)[C@@H](NC(=O)CNC(=O)[C@H](CCC(=O)O)NC(=O)C(C)(C)NC(=O)[C@@H](N)Cc1ccc(O)cc1)[C@@H](C)O)C(=O)N[C@@H](CO)C(=O)N[C@@H](CC(=O)O)C(=O)N[C@@H](Cc1ccc(O)cc1)C(=O)N[C@@H](CO)C(=O)N[C@H](C(=O)N[C@@](C)(CC(C)C)C(=O)N[C@@H](CC(C)C)C(=O)N[C@@H](CC(=O)O)C(=O)N[C@@H](CCCCN)C(=O)N[C@@H](CCCCNC(=O)COCCOCCNC(=O)COCCOCCNC(=O)CC[C@H](NC(=O)CCCCCCCCCCCCCCCCCCC(=O)O)C(=O)O)C(=O)N[C@@H](Cc1c[nH]cn1)C(=O)N[C@@H](CCC(N)=O)C(=O)NC(C)(C)C(=O)N[C@@H](CCC(=O)O)C(=O)N[C@@H](Cc1ccccc1)C(=O)N[C@H](C(=O)N[C@@H](CCC(=O)O)C(=O)N[C@@H](Cc1ccncc1)C(=O)N[C@@H](CC(C)C)C(=O)N[C@@H](CC(C)C)C(=O)N[C@@H](C)C(=O)N[C@@H](CCC(N)=O)C(=O)NCC(=O)N1CCC[C@H]1C(=O)N[C@@H](CO)C(=O)N[C@@H](CO)C(=O)NCC(=O)N[C@@H](C)C(=O)N1CCC[C@H]1C(=O)N1CCC[C@H]1C(=O)N1CCC[C@H]1C(=O)N[C@@H](CO)C(N)=O)C(C)C)[C@@H](C)CC
B5: Example 56 (peptide)
peptide: Y[Aib]EGTFISDYSI[αMeL]LDKK([AEEA-AEEA-γGlu-C20 diacid])HQ[Aib]D[αMeF]VE[4Pal]LLAGGPSSGAPPPS-NH2
modifications: N-terminus assumed
SMILES: CC[C@H](C)[C@H](NC(=O)[C@H](Cc1ccccc1)NC(=O)[C@@H](NC(=O)CNC(=O)[C@H](CCC(=O)O)NC(=O)C(C)(C)NC(=O)[C@@H](N)Cc1ccc(O)cc1)[C@@H](C)O)C(=O)N[C@@H](CO)C(=O)N[C@@H](CC(=O)O)C(=O)N[C@@H](Cc1ccc(O)cc1)C(=O)N[C@@H](CO)C(=O)N[C@H](C(=O)N[C@@](C)(CC(C)C)C(=O)N[C@@H](CC(C)C)C(=O)N[C@@H](CC(=O)O)C(=O)N[C@@H](CCCCN)C(=O)N[C@@H](CCCCNC(=O)COCCOCCNC(=O)COCCOCCNC(=O)CC[C@H](NC(=O)CCCCCCCCCCCCCCCCCCC(=O)O)C(=O)O)C(=O)N[C@@H](Cc1c[nH]cn1)C(=O)N[C@@H](CCC(N)=O)C(=O)NC(C)(C)C(=O)N[C@@H](CC(=O)O)C(=O)N[C@@](C)(Cc1ccccc1)C(=O)N[C@H](C(=O)N[C@@H](CCC(=O)O)C(=O)N[C@@H](Cc1ccncc1)C(=O)N[C@@H](CC(C)C)C(=O)N[C@@H](CC(C)C)C(=O)N[C@@H](C)C(=O)NCC(=O)NCC(=O)N1CCC[C@H]1C(=O)N[C@@H](CO)C(=O)N[C@@H](CO)C(=O)NCC(=O)N[C@@H](C)C(=O)N1CCC[C@H]1C(=O)N1CCC[C@H]1C(=O)N1CCC[C@H]1C(=O)N[C@@H](CO)C(N)=O)C(C)C)[C@@H](C)CC

What was measured:
Assay in all cases: cell-based or functional assay
[1] = molecular target: T1, human glucose-dependent insulinotropic …
human GLP-1 receptor = human GLP-1 receptor (human, UniProt P43220 24-463)
human glucagon receptor = human glucagon receptor (human, UniProt P47871 26-477)
Chain of human glucagon receptor (P47871 26-477): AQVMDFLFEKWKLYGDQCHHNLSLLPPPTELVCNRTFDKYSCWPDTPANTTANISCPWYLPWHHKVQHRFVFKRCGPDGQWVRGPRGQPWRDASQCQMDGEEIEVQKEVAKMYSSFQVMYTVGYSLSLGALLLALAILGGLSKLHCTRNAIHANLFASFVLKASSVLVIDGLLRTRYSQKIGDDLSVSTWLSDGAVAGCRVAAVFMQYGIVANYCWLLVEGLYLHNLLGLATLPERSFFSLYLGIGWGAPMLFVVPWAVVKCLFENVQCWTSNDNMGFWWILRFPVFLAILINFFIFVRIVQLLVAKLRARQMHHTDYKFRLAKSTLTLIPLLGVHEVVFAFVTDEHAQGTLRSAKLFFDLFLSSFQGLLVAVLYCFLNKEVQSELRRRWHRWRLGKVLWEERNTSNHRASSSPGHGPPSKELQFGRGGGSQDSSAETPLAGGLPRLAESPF

| Binder | hGIPR cAMP Rel EC50 [1] [nM] | hGLP1R cAMP Rel EC50 (human GLP-1 receptor) [nM] | hGcgR cAMP Rel EC50 (human glucagon receptor) [nM] |
| --- | --- | --- | --- |
| B1 | 0.017 | > 5000 | > 5000 |
| B2 | 0.054 | > 5000 | > 5000 |
| B3 | 0.0194 | > 5000 | 344 |
| B4 | 0.0177 | > 5000 | 886 |
| B5 | 0.0169 | > 5000 | > 5000 |
